Reference: US20160311886A1, “Constructs Binding to Phosphatidylserine and Their Use in Disease Treatment and Imaging” (Board of Regents, The University of Texas System, priority 2005, published 2016)
Entries after “also recorded” stand apart in the source; their conditions may differ.

B1: 3G4: Mouse IgG3 kappa monoclonal antibody to PS and anionic phospholipids; binding mediated by β2-glycoprotein I (antibody, listed as Mus musculus)
VH: MGWTWIFILILSVTTGVHSEVQLQQSGPELEKPGASVKLSCKASGYSFTGYNMNWVKQSHGKSLEWIGHIDPYYGDTSYNQKFRGKATLTVDKSSSTAYMQLKSLTSEDSAVYYCVKGGYYGHWYFDVWGAGTTVTVSSATTTAPSVYPLVP
VL: MDMRAPAQILGFLLLLFPGTRCDIQMTQSPSSLSASLGERVSLTCRASQDIGSSLNWLQQGPDGTIKRLIYATSSLDSGVPKRFSGSRSGSDYSLTISSLESEDFVDYYCLQYVSSPPTFGAGTKLELKRADAAPTVFIFGRIP

Columns and labels:
MDA-MB-231 tumor vessels = assay: Double staining of orthotopic MDA-MB-231 tumors; format: in vivo, mouse; settings: biotinylated reagent i.v., one hour
Protocol: In further studies, mice bearing MDA-MB-231 tumors (0.3-0.7 cm^3 in volume) were injected intravenously with 50 μg of biotinylated 9D2, control IgM or annexin V (six mice per group). Biotinylated reagents were first incubated with streptavidin-Cy3 conjugate, washed in PBS, then incubated with MECA 32 antibody followed by FITC-tagged anti-rat IgG secondary antibody. Single images, taken with appropriate filters for Cy3 (red) and FITC (green) fluorescence respectively, were captured by digital camera and transferred to a computer. […] The same method was used to analyze tumors from mice injected with control rat IgM or saline. The percentage of vessels with localized 9D2 or annexin V was calculated as follows: mean number of yellow vessels per field divided by mean number of green (total) vessels multiplied by 100.
Double staining studies were also performed in which mice bearing orthotopic MDA-MB-231 breast tumors were injected intravenously with biotinylated 9D2 antibody, biotinylated control IgM or biotinylated annexin V. One hour later, the mice were exsanguinated, and their tumors were removed and frozen sections were cut. The tumor sections were then stained with Cy3-conjugated streptavidin to detect the biotinylated proteins and with FITC-conjugated MECA32 to detect vascular endothelium. […]

[1] = 3G4 reactivity with plastic-immobilized phospholipids and liposome competition; format: binding
Protocol: Phospholipids were dissolved in n-hexane to a concentration of 50 μg/ml. 100 μl of this solution was added to wells of 96-well microtiter plates. After evaporation of the solvent in air, the plates were blocked for 2 h with 10% FBS diluted in DPBS containing 2 mM Ca^2+ (binding buffer). […] Serial two-fold dilutions were prepared in the plates (100 μl per well). The plates were then incubated for 2 hr. at room temperature. […] Secondary reagents were detected by using chromogenic substrate OPD followed by reading plates at 490 nm using a microplate reader (Molecular Devices, Palo Alto, Calif.).
Specificity of phospholipid recognition was further confirmed by competition assays with various liposomes. […] The solutions were dried under nitrogen to form a thin layer in a round-bottomed glass flask. 10 ml of Tris buffer (0.1 M, pH 7.4) were then added and the flask was sonicated five times for 2 min. […] The mixture was added to phospholipid-coated plates.
Liposomes were prepared from solutions of 5 mg of a single phospholipid in chloroform. The solutions were dried under nitrogen to form a thin layer in a round-bottomed glass flask. Ten ml of Tris buffer (0.1 M, pH 7.4) were then added and the flask was sonicated five times for 2 min. […] The mixture was added to PS-coated plates (after standard blocking), incubated for 1 hour, washed and the secondary antibody added. After 1 hour, the plates were washed and developed for 5 minutes using OPD.

MDA-MB-435 breast tumors = assay: 3G4 and chimeric 3G4 tumor treatment; format: in vivo, mouse; settings: MD-MBA-435s; IP 800 μg day 15, 200 μg every two to three days, 400 μg day 35
Protocol: Tumors were also established using MD-MBA-435s cells and treated as described above. […] The treatment of large L540 tumors, MDA-MB-231 and MD-MBA-435s tumor cells for 60 days was also effective. The antibodies caused tumor vascular injury, thrombosis and necrosis and retarded tumor growth, with no evidence of toxicity.
MD-MBA-435s lucerifase cells were obtained from Dr. Angels Sierra Jimenez, Barcelona, Spain and were grown in 10% DMEM. Mice were injected with tumor cells as described as above, and at 2 weeks post injection, the tumors were measured and the volume recorded. […] Treatment was initiated by IP injection (800 μg) at day 15 and continued with injections of 200 μg every two to three days until the final injection of 400 μg at day 35. Tumor volumes and mouse body weights were measured on injection days. Mice were sacrificed and perfused with saline for 12 minutes. The organs and tumor were removed, snap-frozen in liquid nitrogen and the tumor sectioned for immunohistochemistical analysis.
Groups of 8-10 female SCID mice were injected subcutaneously with 2×10^7 L540 cells or orthotopically with 1×10^7 MDA-MB-435 or MDA-MB-231 cells. BALB/c mice were injected subcutaneously with 1×10^6 Meth A cells. […] Animals were monitored three times a week for tumor size and body weight. […]

tumor cells = assay: Direct inhibitory effects of 3G4 on tumor cells in vitro; format: cell-based
human CMV AD169 = assay: CMV plaque assay after antibody treatment
Meth A fibrosarcoma = assay: 3G4 tumor treatment; format: in vivo, mouse
Protocol: Treatment was repeated 3 times a week. Animals were monitored twice a week for tumor measurements.
Groups of 8-10 female SCID mice were injected subcutaneously with 2×10^7 L540 cells or orthotopically with 1×10^7 MDA-MB-435 or MDA-MB-231 cells. BALB/c mice were injected subcutaneously with 1×10^6 Meth A cells. Tumors were allowed to grow to an average diameter of 0.8-1 cm (L540), 0.6-0.7 cm (MDA-MB-435), 0.5-0.7 cm (MDA-MB-231), or <0.1 cm (Meth A). […] Animals were monitored three times a week for tumor size and body weight. Mice were sacrificed when tumors in control mice reached a diameter of 1.5-2 cm.

tumors = assay: Tumor treatment with 3G4 and its F(ab′)2 fragment; format: in vivo, mouse; settings: treated on day 9

Molecule | MECA 32 positive vessels that bound the reagent (MDA-MB-231 tumor vessels) | binding to neutral phospholipids (PE, PC and SM) in ELISA [1] | binding to anionic phospholipid-coated plates ([1]; 1 mg/ml human β2-glycoprotein I, no serum) | effect of EDTA on binding ([1]; 5 mM EDTA) | reduction of binding to anionic phospholipid-coated plates ([1]; absence of serum) | competition by phospholipid liposomes ([1]; liposomes of single phospholipids) | tumor growth vs control (MDA-MB-435 breast tumors) | direct inhibitory effect on tumor cells (tumor cells) | activation of endothelial cells (HUVECs) | inhibitory effect on viral titer (human CMV AD169; high m.o.i., addition delayed to 48 hours) | decrease in viral titer (human CMV AD169; high m.o.i., addition up to 24 hours after infection) | inhibition of viral replication vs GV39G (human CMV AD169; m.o.i. of 3, 50 μg/ml) | decrease in viral titer vs GV39G (human CMV AD169; m.o.i. of 3, 100 μg/ml) | decrease in viral titer vs GV39G (human CMV AD169; m.o.i.=0.01, 50 μg/ml) | inhibition of viral replication (human CMV AD169; m.o.i.=0.01, 100 μg/ml) | decrease in viral titer vs GV39G (human CMV AD169; m.o.i.=0.01 pfu/cell, 100 μg/ml) | mice with long-term complete remissions (Meth A fibrosarcoma; Meth A-bearing mice) | retardation of tumor growth (Meth A fibrosarcoma; syngeneic Meth A fibrosarcoma) | tumor growth (tumors)
Annexin V: High affinity PS binding ligand; natural ligand binding anionic phospholipids and PE | About 40% |  |  |  |  |  |  |  |  |  |  |  |  |  |  |  |  |  | 
B1 |  | does not bind | Full binding was restored | unaffected | 90% | blocked by liposomes prepared from PS, PA, PI and CL; also recorded: blocked by liposomes prepared from anionic phospholipids | effectively retarded tumor growth | No direct inhibitory effect on tumor cells was observed | does not activate resting HUVECs or HUVECs pre-activated with low concentrations of LPS | 2 log10 | 5-6 log10 | 3 logs | 5 log10 | 3.5 log10 | approximately 99.9999% | 6 log10 | 50% | 90% | tumor growth was significantly slowed
